In patent US20240209061A1, “FUSION PROTEINS AND USES THEREOF” (Pfizer Inc., priority 2020, published 2024):

Legend:
[1] = Thermal forced aggregation (SEC); format: physicochemical; conditions: Table 11, 24 hours, PBS
Method: To assess the aggregation propensity of variant CD80-Fc fusion proteins, 1 mg/ml of CD80-Fc fusion protein was incubated in PBS at increasing temperatures for 24 hours. The samples were analyzed by SEC on an Agilent 1100 (Agilent Technologies, Germany) HPLC system using a YMC-Pack Diol-200 (YMC, Germany) analytical size exclusion chromatography column and PBS supplemented to 400 mM NaCl as running buffer. % aggregation was calculated from the loss of intact peak area. […] ND=Not Determined.

[2] = system: human peripheral blood mononuclear cells (PBMCs); assay: Human PBMC IL-2 production assay with plate-bound anti-CD3; format: cell-based; conditions: average of 5 PBMC donors; 1 μg/ml anti-CD3; 48 hours
Method: The ability of the variant CD80-Fc fusion proteins to promote IL-2 production in the context of anti-CD3 (to stimulate T cell receptor signaling) in human peripheral blood mononuclear cells (PBMCs) was tested. To bind anti-CD3 antibody on the plate, the anti-human-CD3 (clone HIT3a, BD Pharmingen) was incubated in 96-well plates at 4° C. overnight at 1 μg/ml unless otherwise noted. Human PBMCs were isolated from freshly collected human whole blood using Ficoll-Paque Plus. Human PBMCs (100,000 per well) were incubated with plate-bound anti-CD3 and the indicated concentrations of soluble CD80-Fc fusion protein in RPMI+10% HI-FBS, pen/strep, sodium pyruvate and non-essential amino acids. After 48 hours incubation, supernatants were collected and IL-2 measured by the Quantikine human IL-2 ELISA kit from R&D.
Additional CD80-Fc fusion proteins were tested in the same PBMC assay, at the concentration of anti-human-CD3 (clone HIT3a, BD Pharmingen) noted.

[3] = system: peripheral blood mononuclear cells (PBMC); assay: RESTORE cytokine release assay in absence of TCR stimulation; format: cell-based, human; parameters: IFNγ: unit not given beside the values; conditions: Table 20
Method: The ability of variant CD80-Fc fusion proteins to promote cytokine release in the absence of TCR stimulation was assessed in the RESTORE (RESetting T cells to Original Reactivity) assay (Römer et al, Blood, 2011). Freshly isolated peripheral blood mononuclear cells (PBMC) from whole blood of several healthy donors were cultured for 48 hours at […] within RPMI1640 media supplemented with 10% autologous plasma, 10 mM HEPES, 1× GlutaMAX, 1× PenStrep, beta2-mercaptoethanol, NEAA and sodium pyruvate. Following the 48-hour incubation, PBMC were pelleted and resuspended at a final concentration of 10^6/ml with indicated soluble drug. Treatment was allowed for 48 hours then supernatant was harvested and assessed in IL-2 and IFNγ ELISA according to manufacturer's protocol (BioLegend).
Positive controls included CD28 superagonist anti-CD28 clone TGN1412 as IgG1 and IgG4 isotypes and anti-CD3. […] Values shown are the average of 3 technical replicates. D=Donor.

[4] = system: CT26 murine colorectal carcinoma tumor cells; assay: CT26 murine colorectal carcinoma model; format: in vivo, mouse; conditions: for Day 10 tumor volume: Days 0 and 3; for % tumor growth inhibition: Day 10
Method: CT26 murine colorectal carcinoma tumor cells (1×10^6) were subcutaneously implanted in the hind flank of female Balb/c mice. When tumors reached ˜100 mm3 (Day 8), mice were randomized. PBS vehicle control or variant CD80-Fc fusion proteins were dosed intravenously at 0.1 and 1.0 mg/kg on Days 0 and 3. Tumor volume was determined by caliper measurements obtained in 2 dimensions and calculated as width^2×length/2. Error bars are depicted as ±SEM.
IFNγ ELIspot was used to measure tumor-reactive T cells in the spleen in mice treated with CD80-Fc fusion proteins at a 1 mg/kg dose.
Cytotoxic CD8^+ T cells are responsible for killing cancer cells and the measurement of CD8^+ T cells that have infiltrated tumors commonly correlates with efficacy for immune-oncology therapies. For all in vivo studies, tumors were collected ˜1 week after the first dose and dissociated by mincing, followed by incubation in an enzymatic digestion cocktail and homogenization. The resulting cell suspension was filtered and washed, and single cells were stained with antibodies to CD45, CD8, and a viability dye to detect tumor-infiltrating lymphocytes (TILs) by flow cytometry. Data were acquired on a BD LSRFortessa flow cytometer or a Cytek Aurora spectral flow cytometer. Table 31 and FIG. 18 show the amount of tumor-infiltrating CD8+ T cells expressed as a percentage of total immune cells (CD45+). Each value is the average of n=4 mice per group. Treatment with all variant CD80-Fc fusion proteins led to increase in CD8+ TILs in various tumor models.

[5] = system: B16F10 murine melanoma cells; assay: B16F10 melanoma model, combination with αPD1 antibody; format: in vivo, mouse; conditions: CD80-D90Q-E23C-A26C-Fc 3 mg/kg and/or αPD1 Ab 10 mg/kg
Method: B16F10 murine melanoma cells (0.5 million) were subcutaneously implanted in the hind flank of female C57BL/6J mice. When tumors reached ˜100 mm3, mice were randomized and dosed with PBS vehicle control, 3 mg/kg CD80-D90Q-E23C-A26C-Fc, and or 10 mg/kg murine αPD1 antibody. CD80-D90Q-E23C-A26C-Fc was dosed on Days 0 and 3, αPD1 antibody was dosed on Days 0, 3 and 6. Tumor volume was determined by caliper measurements obtained in 2 dimensions and calculated as width^2×length/2. Error bars are depicted as ±SEM

[6] = Pharmacokinetics in huFcRn transgenic mice; conditions: 0.1 mg/kg IV
Method: PK of CD80-Fc fusion proteins was also assessed in transgenic mice expressing the human neonatal Fc receptor (huFcRn) a-chain transgene under the control of its natural human promoter. Female mice were dosed intravenously with CD80-Fc fusion proteins at 0.1 mg/kg, and blood was collected at the timepoints indicated on the graph. Levels of CD80-Fc in mouse plasma were measured as described above.

CD80-D90Q-E23C-A26C-Fc: disulfide stabilized variant CD80-Fc fusion protein (D90Q, E23C, A26C)
% aggregation ([1]; 40° C.): 0.0%
% aggregation ([1]; 45.3° C.): 0.1%
% aggregation ([1]; 49.4° C.): 0.1%
% aggregation ([1]; 54.9° C.): 0.5%
% aggregation ([1]; 59.1° C.): 26.2%
% aggregation ([1]; 64° C.): 68.8%
EC50 [2]: 24.2 ± 10 nM
IFNγ ([3]; D222, 1 μg/ml): 4.0
IL-2 ([3]; D222, 1 μg/ml): 7.0
IFNγ ([3]; D222, 10 μg/ml): 4.7
IL-2 ([3]; D222, 10 μg/ml): 11.0
IFNγ ([3]; D281, 1 μg/ml): 5.0
IL-2 ([3]; D281, 1 μg/ml): 2.0
IFNγ ([3]; D281, 10 μg/ml): 6.3
IL-2 ([3]; D281, 10 μg/ml): 2.0
IFNγ ([3]; D462, 1 μg/ml): 7.3
IL-2 ([3]; D462, 1 μg/ml): 1.7
IFNγ ([3]; D462, 10 μg/ml): 6.0
IL-2 ([3]; D462, 10 μg/ml): 2.0
IFNγ ([3]; D547, 1 μg/ml): 3.3
IL-2 ([3]; D547, 1 μg/ml): 4.3
IFNγ ([3]; D547, 10 μg/ml): 5.0
IL-2 ([3]; D547, 10 μg/ml): 12.0
Number of tumor regressions ([4]; 0.1 mg/kg): 2/10
Day 10 tumor volume ([4]; 0.1 mg/kg IV): 388.9 mm^3
% tumor growth inhibition ([4]; 0.1 mg/kg): 67.53%
Number of tumor regressions ([4]; 1 mg/kg): 9/10
Day 10 tumor volume ([4]; 1 mg/kg IV): 197.8 mm^3
% tumor growth inhibition ([4]; 1 mg/kg): 83.49%
# IFNγ-producing spots (tumor-reactive T cells in spleen) ([4]; 1 mg/kg, average of n = 4 mice): 523.1875
Day 10 tumor volume [5]: 1208.8 mm^3
% tumor growth inhibition ([5]; Day 10): 26.3%
AUC [6]: 88000 ng·h/mL
CL [6]: 15.8 mL/day/kg
T1/2 [6]: 148 h
Vdss [6]: 0.131 L/kg
Cmax ([6]; average of 3 animals): 1400 ng/mL
